The text below walks through data of article PMC10538664 (2023).

The target in this test is prototype SARS-CoV-2 tandem RBD homotrimer (PPP) (SARS-CoV-2, UniProt P0DTC2). Description: SPR.

B1: fragment antigen binding (Fab) of mAb CB6 (Fab, V domains shown)
VH: EVQLVESGGGLVQPGGSLRLSCAASGFTVSSNYMSWVRQAPGKGLEWVSVIYSGGSTFYADSVKGRFTISRDNSMNTLFLQMNSLRAEDTAVYYCARVLPMYGDYLDYWGQGTLVTVSS
VL: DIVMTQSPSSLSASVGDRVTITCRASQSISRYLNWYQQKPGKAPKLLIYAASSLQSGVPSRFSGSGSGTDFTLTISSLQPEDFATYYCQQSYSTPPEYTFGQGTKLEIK
On to B1, for which the Kd turned out to be 24.3 nM.

The Kd is a measure of binding affinity in units of concentration. A lower Kd goes with higher affinity.
